From patent publication US20260242478A1 (published 2026) come the findings set out here.

Where no end group is shown, it is not given here.

Assay [1] concerns the target T1, Anti-CD28 Fab (SEQ ID NOs: 696, 697).
T1 construct: Biotinylated and captured on neutravidin coated plates in the phage ELISA
Description: phage ELISA; biotinylated anti-CD28 Fab on neutravidin plate, clonal phage supernatant, anti-M13 HRP. For orientation: An ELISA detects its analyte on a solid surface through an enzyme-linked reagent.
T1 sequence (VH, as listed by the source, chain 1 of 2): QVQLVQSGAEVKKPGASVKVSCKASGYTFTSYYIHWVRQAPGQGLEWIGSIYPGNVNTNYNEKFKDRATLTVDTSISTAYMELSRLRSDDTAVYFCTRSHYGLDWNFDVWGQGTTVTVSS
T1 sequence (VL, as listed by the source, chain 2 of 2): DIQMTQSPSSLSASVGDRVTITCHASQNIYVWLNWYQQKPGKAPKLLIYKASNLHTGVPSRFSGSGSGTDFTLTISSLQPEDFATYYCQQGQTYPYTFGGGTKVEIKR
Description: (§1) After panning, phage infected bacteria were plated out and colonies picked into 96 well blocks. Clonal phage was then amplified and separated from bacterial cells via centrifugation.
(§2) Clonal phage were harvested as crude supematants and screened via standard ELISAs. […] Prior to the addition of clonal phage, wells were incubated with blocking buffer and CD28 antigen or blocking buffer alone. Without washing or aspirating, clonal phage supematants were then added to the wells and incubated for a short time. Wells were then washed followed by detection of bound phage using a horse radish conjugated anti-M13 antibody. Clonal phage of interest were then sent for sequence analysis.

The target is the same in assay [2]. The experiment in a line: phage ELISA; Fab-coated wells first incubated with CD28 antigen (competitor), then clonal phage, anti-M13 HRP.
Target sequence in this assay (VH, as listed by the source, chain 1 of 2): as the sequence (VH, as listed by the source, chain 1 of 2) above
Target sequence in this assay (VL, as listed by the source, chain 2 of 2): as the sequence (VL, as listed by the source, chain 2 of 2) above
Description: as §1, §2
The target of assay [3] is Anti-CD28 Fab (SEQ ID NOs: 696, 697). Description: phage ELISA; biotinylated anti-CD28 Fab on neutravidin plate, clonal phage supernatant, anti-M13 HRP detection.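 Further: crude supernatants of single phage clones picked after panning were screened for binding.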
Target sequence in this assay (VH, as listed by the source, chain 1 of 2): as the sequence (VH, as listed by the source, chain 1 of 2) above
Target sequence in this assay (VL, as listed by the source, chain 2 of 2): as the sequence (VL, as listed by the source, chain 2 of 2) above
For assay [4] the target is unchanged. Description: phage ELISA; Fab on plate pre-incubated with CD28 antigen (competitor), clonal phage supernatant, anti-M13 HRP detection.
Target sequence in this assay (VH, as listed by the source, chain 1 of 2): as the sequence (VH, as listed by the source, chain 1 of 2) above
Target sequence in this assay (VL, as listed by the source, chain 2 of 2): as the sequence (VL, as listed by the source, chain 2 of 2) above
Description: as §1, §2
Assay [5] shares this target. Description: phage binding ELISA; captured Fab pre-incubated with CD28 antigen as competitor, anti-M13 HRP.
Target sequence in this assay (VH, as listed by the source, chain 1 of 2): as the sequence (VH, as listed by the source, chain 1 of 2) above
Target sequence in this assay (VL, as listed by the source, chain 2 of 2): as the sequence (VL, as listed by the source, chain 2 of 2) above
Description: as §1, §2
For assay [6] the target is unchanged. Description: phage binding ELISA; biotinylated Fab on neutravidin plate, clonal phage supernatant, anti-M13 HRP.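 Further: clones picked after panning, added to wells pre-incubated with CD28 antigen or with blocking buffer only, no wash before phage addition, bound phage read after washing.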
Target sequence in this assay (VH, as listed by the source, chain 1 of 2): as the sequence (VH, as listed by the source, chain 1 of 2) above
Target sequence in this assay (VL, as listed by the source, chain 2 of 2): as the sequence (VL, as listed by the source, chain 2 of 2) above
Description: as §1, §2
Assay [7] addresses T2, Anti-CD28 Fab (SEQ ID NOs: 696, 697).
T2 construct: In the phage ELISA the Fab was biotinylated and captured on neutravidin coated plates
The experiment in a line: phage binding ELISA on plate-captured anti-CD28 Fab pre-incubated with CD28 antigen as competitor.
Description: as §1, §2

The target is the same in assay [8]. The experiment in a line: phage binding ELISA; clonal phage on plate-captured biotinylated anti-CD28 Fab, anti-M13 HRP detection.
Description: as §1, §2

YCEGHAHEYMEKCV [Phage-1237]: in assay [1], the “Anti-CD28 Fab signal (phage binding ELISA)” value was found to be 0.93. In addition, in assay [2], the “Anti-CD28 Fab signal in the presence of CD28 (phage binding ELISA)” value was found to be 0.07.

With YCDGHIPQYVEKCL [Phage-1235], the “Anti-CD28 Fab signal (phage binding ELISA)” value in assay [1] came to 0.94. Also, in assay [2], the “Anti-CD28 Fab signal in the presence of CD28 (phage binding ELISA)” value turned out to be 0.08.

YCDGHSPQYLWKCL (also called Peptide-87 library clone) [Phage-1269]: the “Phage binding ELISA, Anti-CD28 Fab signal” value in assay [3] turned out to be 0.8. In assay [4], the “Phage binding ELISA, Anti-CD28 Fab signal in the presence of CD28” value amounted to 0.05.

In the case of YCDGHIAEYRSKCL (Tested as clonal phage supernatant) [Phage-1257], the “Anti-CD28 Fab signal in the presence of CD28” value in assay [5] was determined as 0.07. The “Anti-CD28 Fab (SEQ ID NOs: 696, 697) signal” value in assay [6] was found to be 0.87.

With YCEGHLAAYMYKCL (Tested as clonal phage supernatant) [Phage-1252], the “Anti-CD28 Fab signal in the presence of CD28” value in assay [5] came to 0.07. Besides, the “Anti-CD28 Fab (SEQ ID NOs: 696, 697) signal” value in assay [6] was determined as 0.89.

Turning to YCAGHSLQYLGKCY (also called Peptide-87 library clone) [Phage-1260], the “Phage binding ELISA, Anti-CD28 Fab signal” value in assay [3] came to 0.86. Moreover, the “Phage binding ELISA, Anti-CD28 Fab signal in the presence of CD28” value in assay [4] amounted to 0.06.

On to YCAGHSAQYMWKCL [Phage-1240], for which the “Anti-CD28 Fab signal (phage binding ELISA)” value in assay [1] was found to be 0.92. In assay [2], the “Anti-CD28 Fab signal in the presence of CD28 (phage binding ELISA)” value was found to be 0.07.

YCDGHLLMYMEKCL (Tested as clonal phage supernatant) [Phage-1247]: the “Anti-CD28 Fab signal in the presence of CD28” value in assay [5] worked out at 0.06. In addition, the “Anti-CD28 Fab (SEQ ID NOs: 696, 697) signal” value in assay [6] amounted to 0.91.

As for YCEGHLSEYIGKCL (Tested as clonal phage supernatant) [Phage-1258], the “Anti-CD28 Fab signal in the presence of CD28” value in assay [5] was 0.06. Further, the “Anti-CD28 Fab (SEQ ID NOs: 696, 697) signal” value in assay [6] was found to be 0.87.

Turning to YCVGHSPEYIWKCL [Phage-1243], in assay [1], the “Anti-CD28 Fab signal (phage binding ELISA)” value came to 0.92. Besides, in assay [2], the “Anti-CD28 Fab signal in the presence of CD28 (phage binding ELISA)” value is 0.06.

In the case of YCDGHSMTYMAKCI (also called Peptide-87 library clone) [Phage-1262], the “Phage binding ELISA, Anti-CD28 Fab signal” value in assay [3] worked out at 0.84. The “Phage binding ELISA, Anti-CD28 Fab signal in the presence of CD28” value in assay [4] stood at 0.06.

Consider YCEGHDWMYMEKCL (Tested as clonal phage supernatant) [Phage-1248], for which the “Anti-CD28 Fab signal in the presence of CD28” value in assay [5] was 0.07. Besides, the “Anti-CD28 Fab (SEQ ID NOs: 696, 697) signal” value in assay [6] turned out to be 0.91.

For YCAGHSAEYIQKCL (also called Peptide-87 library clone) [Phage-1270], in assay [3], the “Phage binding ELISA, Anti-CD28 Fab signal” value amounted to 0.8. In assay [4], the “Phage binding ELISA, Anti-CD28 Fab signal in the presence of CD28” value came to 0.08.

Consider YCDGHSGEYMSKCL (also called Peptide-87 library clone) [Phage-1266], for which the “Phage binding ELISA, Anti-CD28 Fab signal” value in assay [3] came to 0.82. Besides, in assay [4], the “Phage binding ELISA, Anti-CD28 Fab signal in the presence of CD28” value amounted to 0.06.

Regarding YCDGHDPQYIRKCI (also called Peptide-87 library clone) [Phage-1264], the “Phage binding ELISA, Anti-CD28 Fab signal” value in assay [3] is 0.83. In addition, in assay [4], the “Phage binding ELISA, Anti-CD28 Fab signal in the presence of CD28” value is 0.06.

Regarding YCDGHFTWYMAKCL (Tested as clonal phage supernatant) [Phage-1256], the “Anti-CD28 Fab signal in the presence of CD28” value in assay [5] worked out at 0.08. The “Anti-CD28 Fab (SEQ ID NOs: 696, 697) signal” value in assay [6] is 0.87.

Turning to YCAGHAAIYMAKCL (also called Peptide-87 library clone) [Phage-1261], the “Phage binding ELISA, Anti-CD28 Fab signal” value in assay [3] was found to be 0.85. For the same molecule, in assay [4], the “Phage binding ELISA, Anti-CD28 Fab signal in the presence of CD28” value stood at 0.07.

Regarding YCDGHIKEYMSKCL [Phage-1246], the “Anti-CD28 Fab signal (phage binding ELISA)” value in assay [1] turned out to be 0.91. Further, the “Anti-CD28 Fab signal in the presence of CD28 (phage binding ELISA)” value in assay [2] was 0.08.

Regarding YCAGHAEIYMQKCL [Phage-1236], in assay [1], the “Anti-CD28 Fab signal (phage binding ELISA)” value came out at 0.93. Moreover, the “Anti-CD28 Fab signal in the presence of CD28 (phage binding ELISA)” value in assay [2] is 0.05.

For the molecule YCDGHSTLYMQKCL (Tested as clonal phage supernatant) [Phage-1253], the “Anti-CD28 Fab signal in the presence of CD28” value in assay [5] amounted to 0.06. Besides, the “Anti-CD28 Fab (SEQ ID NOs: 696, 697) signal” value in assay [6] is 0.88.

On to YCDGHSMEYMAKCL (also called Peptide-87 library clone) [Phage-1268], for which, in assay [3], the “Phage binding ELISA, Anti-CD28 Fab signal” value is 0.8. For the same molecule, the “Phage binding ELISA, Anti-CD28 Fab signal in the presence of CD28” value in assay [4] was 0.07.

For YCEGHLPMYMQKCM (also called Peptide-87 library clone) [Phage-1265], the “Phage binding ELISA, Anti-CD28 Fab signal” value in assay [3] worked out at 0.82. Further, in assay [4], the “Phage binding ELISA, Anti-CD28 Fab signal in the presence of CD28” value was found to be 0.07.

As for YCAGHTQEYMLKCL (also called Peptide-87 library clone) [Phage-1271], the “Phage binding ELISA, Anti-CD28 Fab signal” value in assay [3] worked out at 0.78. For the same molecule, the “Phage binding ELISA, Anti-CD28 Fab signal in the presence of CD28” value in assay [4] came to 0.06.

As for YCDGHELMYMEKCL [Phage-1244], the “Anti-CD28 Fab signal (phage binding ELISA)” value in assay [1] was 0.92. The “Anti-CD28 Fab signal in the presence of CD28 (phage binding ELISA)” value in assay [2] amounted to 0.06.

Consider YCAGHLEMYMSKCL [Phage-1245], for which, in assay [1], the “Anti-CD28 Fab signal (phage binding ELISA)” value was found to be 0.91. In assay [2], the “Anti-CD28 Fab signal in the presence of CD28 (phage binding ELISA)” value worked out at 0.07.

YCEGHISEYMGKCL (Tested as clonal phage supernatant) [Phage-1255]: in assay [5], the “Anti-CD28 Fab signal in the presence of CD28” value was 0.05. In addition, the “Anti-CD28 Fab (SEQ ID NOs: 696, 697) signal” value in assay [6] worked out at 0.88.

B1: Phage-1233 (peptide)
peptide: YCDGHEERYMAKCL
modifications: cysteine pairing not given here; also: displayed on phage by fusion to pIII, linker and pIII sequence not given here
notes: Tested as clonal phage supernatant
On to B1, for which the “Anti-CD28 Fab signal in the presence of CD28 (phage binding ELISA)” value in assay [7] came out at 0.06. In assay [8], the “Anti-CD28 Fab signal (phage binding ELISA)” value turned out to be 0.94.

As to YCDGHHAEYMWKCL [Phage-1238], the “Anti-CD28 Fab signal (phage binding ELISA)” value in assay [1] was determined as 0.93. Moreover, in assay [2], the “Anti-CD28 Fab signal in the presence of CD28 (phage binding ELISA)” value came to 0.06.

On to YCEGHSQEYKAKCF (Tested as clonal phage supernatant) [Phage-1249], for which the “Anti-CD28 Fab signal in the presence of CD28” value in assay [5] is 0.07. In assay [6], the “Anti-CD28 Fab (SEQ ID NOs: 696, 697) signal” value was 0.9.

Regarding YCDGHVLMYLAKCL (Tested as clonal phage supernatant) [Phage-1250], the “Anti-CD28 Fab signal in the presence of CD28” value in assay [5] was found to be 0.09. Further, in assay [6], the “Anti-CD28 Fab (SEQ ID NOs: 696, 697) signal” value came out at 0.9.

In the case of YCEGHTQAYLAKCL [Phage-1239], the “Anti-CD28 Fab signal (phage binding ELISA)” value in assay [1] amounted to 0.93. Further, the “Anti-CD28 Fab signal in the presence of CD28 (phage binding ELISA)” value in assay [2] is 0.1.

Turning to YCEGHSSAYMAKCL (Tested as clonal phage supernatant) [Phage-1251], the “Anti-CD28 Fab signal in the presence of CD28” value in assay [5] came to 0.07. Further, the “Anti-CD28 Fab (SEQ ID NOs: 696, 697) signal” value in assay [6] was 0.9.

Take YCSGHVPEYMEKCL [Phage-1234]: the “Anti-CD28 Fab signal (phage binding ELISA)” value in assay [1] came out at 0.94. Besides, the “Anti-CD28 Fab signal in the presence of CD28 (phage binding ELISA)” value in assay [2] was 0.06.

For YCEGHAREYMDKCL (also called Peptide-87 library clone) [Phage-1267], the “Phage binding ELISA, Anti-CD28 Fab signal” value in assay [3] came out at 0.8. Besides, the “Phage binding ELISA, Anti-CD28 Fab signal in the presence of CD28” value in assay [4] came out at 0.07.

On to YCDGHSAEYLGKCL [Phage-1242], for which the “Anti-CD28 Fab signal (phage binding ELISA)” value in assay [1] worked out at 0.92. In assay [2], the “Anti-CD28 Fab signal in the presence of CD28 (phage binding ELISA)” value is 0.07.

YCDGHTEAYMSKCL (Tested as clonal phage supernatant) [Phage-1254]: the “Anti-CD28 Fab signal in the presence of CD28” value in assay [5] came out at 0.06. Further, in assay [6], the “Anti-CD28 Fab (SEQ ID NOs: 696, 697) signal” value came to 0.88.

YCDGHKWEYLQKCL (also called Peptide-87 library clone) [Phage-1263]: the “Phage binding ELISA, Anti-CD28 Fab signal” value in assay [3] was 0.84. Besides, in assay [4], the “Phage binding ELISA, Anti-CD28 Fab signal in the presence of CD28” value is 0.06.

For the molecule YCDGHTAQYMWKCL (Tested as clonal phage supernatant) [Phage-1259], in assay [5], the “Anti-CD28 Fab signal in the presence of CD28” value stood at 0.07. For the same molecule, in assay [6], the “Anti-CD28 Fab (SEQ ID NOs: 696, 697) signal” value amounted to 0.87.

YCDGHSFEYMAKCL [Phage-1241]: in assay [1], the “Anti-CD28 Fab signal (phage binding ELISA)” value came out at 0.92. In addition, the “Anti-CD28 Fab signal in the presence of CD28 (phage binding ELISA)” value in assay [2] came to 0.06.
